Data reported in paper PMC1865076.

B1: mim-A (dsDNA)
DNA 1: AGCGCTAAAAAACCGTTATAATGTGCAGAT
DNA 2: ATCTGCACATTATAACGGTTTTTTAGCGCT
B2: mim-C (dsDNA)
DNA 1: GTTGATTTCCATCTGTTATTTGAGCTAAG
DNA 2: CTTAGCTCAAATAACAGATGGAAATCAAC

How the values were obtained:
[1] = target: T1, His6-Ovol1 (UniProt Q9WTJ2 1-267); assay: competition
[2] = target: c-Myb R2R3 (chicken, UniProt P01103 87-193); assay: EMSA
[3] = target: T1, His6-Ovol1; assay: EMSA

T1 sequence (Q9WTJ2 whole entry): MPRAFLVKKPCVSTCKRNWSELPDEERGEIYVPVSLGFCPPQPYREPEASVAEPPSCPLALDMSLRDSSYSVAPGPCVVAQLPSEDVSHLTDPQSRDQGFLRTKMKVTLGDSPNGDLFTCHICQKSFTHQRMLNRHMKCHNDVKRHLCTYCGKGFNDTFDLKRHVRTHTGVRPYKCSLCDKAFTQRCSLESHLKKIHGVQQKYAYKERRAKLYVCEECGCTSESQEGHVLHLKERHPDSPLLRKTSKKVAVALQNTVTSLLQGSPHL
Chain of c-Myb R2R3 (P01103 87-193): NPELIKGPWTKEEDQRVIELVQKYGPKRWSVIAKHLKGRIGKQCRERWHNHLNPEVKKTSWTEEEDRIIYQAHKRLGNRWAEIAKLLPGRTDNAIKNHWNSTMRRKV

Row | Binder | binding result [1] | binding result [2] | binding result [3]
1 | B1 | binds | binds | –
2 | B2 | – | – | no binding
